Experimental data as given in PMC11806767, “The tryptophan-aspartate (WD) repeat domain of bovine Coronin-1A promotes mycobacterial survival by inhibiting calcium signaling-mediated phagosome-lysosome fusion” (Veterinary Research, 2025).

Molecular target: the molecule itself
Assay: native gel or EMSA

B1: bovine Coronin-1A (p3×Flag-bCoronin-1A) (natural protein)
chain: MSRQVVRSSKFRHVFGQPAKADQCYEDVRVSQNTWDSGFCAVNPKFVALICEASGGGAFLVLPLGKTGRVDKNVPMVCGHTAPVLDIAWCPHNDNVIASGSEDCSVMVWEIPDGGLTLPLREPVVTLEGHTKRVGIVAWHPTAQNVLLSAGCDNVILVWDVGTGVAVLTLGSDVHPDTIYSVDWSRDGALICTSCRDKRVRIIEPRKGTIVAEKDRPHEGTRPVRAVFVSDGKILTTGFSRMSERQVALWDTKHLEEPLSLQELDTSSGVLLPFFDPDTNIVYLCGKGDSSIRYFEITSEAPFLHYLSMFSSKESQRGMGYMPKRGLEVNKCEIARFYKLHERKCEPIAMTVPRKSDLFQEDLYPPTAGPDAALTAEEWLGGRDAGPLLISLKDGYVPPKSRELRVNRGLDTGRKRTTPEASGAPSSDAISRLEEEMRKLQATVQELQKRLDRLEETVQAK
stoichiometry N: 3
